Measurements as given in the Human Domainome abundance scans (Beltran et al. 2025).

B1: 1-phosphatidylinositol 4,5-bisphosphate phosphodiesterase gamma-2, residues 772 to 827; numbered along this chain, P16885 (parent)
chain: RTVKALYDYKAKRSDELSFCRGALIHNVSKEPGGWWKGDYGTRIQQYFPSNYVEDI

Variants of: B1
Experiment: abundance fitness (aPCA) (normalised: wild type 0, dead -1); higher = more abundant; growth selection in yeast, the domain comes from the species named
Settings: Homo sapiens

Abundance fitness: each site, then its substitutions
K37: M -0.548; Q -0.407; Y -0.301; W -0.908; A -0.622; G -0.887; I -0.301; R -0.091; F -0.371; P -0.617; C -0.318; E -0.757; L -0.276; T -0.32; D -0.486; V -0.213
D39: K -0.74; W -0.82; V -0.882; A -1.01; S -0.825; G -0.864; M -0.924; P -0.851; Q -0.958; Y -0.31; R -1.01; E -0.798; T -0.418; F -0.486
W36: T -0.89; K -0.705; I -0.611; S 0.22; Q -0.839; L -0.095; M -0.108; E -0.809; Y -0.368; F -0.308; R -0.724; G -0.58
Y40: L 0.041; A -0.3; N -0.284; G -0.864; V -0.216; Q -0.312; S -0.284; H 0.031; R -0.498; C -0.061; T -0.265; M -0.336; E -0.419; I 0.107; W -0.713; D -0.711; K 0.189
G38: R -0.959; K -1.01; A -0.83; T -0.821; V -0.851; E -0.595; L -1.11; W -0.803; S -1; I -0.765
Q46: K -0.067; D -0.673; F -0.274; C -0.193; N -0.114; E -0.684; M 0.006; L -0.041; G 0.086; A 0.053
I44: N -0.224; L -0.111; Q -0.246; M 0.019; Y -0.116; H 0.026; K -0.008; W -0.384; D -0.64; E -0.133; C -0.074; T 0.191; P -0.845; A -0.196; F -0.237; S -0.454; V 0.043; G -0.811
T42: E 0.168; A -0.065; G 0.078; V -0.165; S 0.054; Y -0.385; M -0.01; N 0.139; K -0.243; W -0.186; C -0.227; F -0.152; P 0.147; D 0.076; L -0.155; R 0.03; Q -0.262; I -0.021
R43: I -0.377; D -0.243; E -0.033; S -0.199; A 0.015; Q -0.039; N 0.097; P -0.909; W -0.167; C -0.111; K -0.018; L -0.139; H 0.022; F -0.359; G -0.01; V -0.349; T -0.269; M -0.049; Y -0.228
G41: A -0.273; I -0.566; K -0.012; V -0.889; Q -0.217; D 0.069; F -0.54; C -0.581; M -0.268; H -0.151; E -0.117; S -0.627; T -0.699; R -0.234; Y -0.557; P -1.01
Q45: V -0.942; H -0.458; E -0.819; R -0.92; N -0.273; T -0.651; W -0.916; P -0.699; Y -0.732; G -0.278; I -0.658; A -0.335; K -0.51; D -0.753; L -0.923; C -0.33; S -0.472
